Assay [1] addresses T1, pCD163-SRCR1-9-huFc (porcine, UniProt Q2VL90 47-1028, limits assumed).
T1 construct: also called pCD163:SRCR1-9-Fc; pCD163SRCR1-9-Fc; not shown: human Fc (huFc)
T1 sequence: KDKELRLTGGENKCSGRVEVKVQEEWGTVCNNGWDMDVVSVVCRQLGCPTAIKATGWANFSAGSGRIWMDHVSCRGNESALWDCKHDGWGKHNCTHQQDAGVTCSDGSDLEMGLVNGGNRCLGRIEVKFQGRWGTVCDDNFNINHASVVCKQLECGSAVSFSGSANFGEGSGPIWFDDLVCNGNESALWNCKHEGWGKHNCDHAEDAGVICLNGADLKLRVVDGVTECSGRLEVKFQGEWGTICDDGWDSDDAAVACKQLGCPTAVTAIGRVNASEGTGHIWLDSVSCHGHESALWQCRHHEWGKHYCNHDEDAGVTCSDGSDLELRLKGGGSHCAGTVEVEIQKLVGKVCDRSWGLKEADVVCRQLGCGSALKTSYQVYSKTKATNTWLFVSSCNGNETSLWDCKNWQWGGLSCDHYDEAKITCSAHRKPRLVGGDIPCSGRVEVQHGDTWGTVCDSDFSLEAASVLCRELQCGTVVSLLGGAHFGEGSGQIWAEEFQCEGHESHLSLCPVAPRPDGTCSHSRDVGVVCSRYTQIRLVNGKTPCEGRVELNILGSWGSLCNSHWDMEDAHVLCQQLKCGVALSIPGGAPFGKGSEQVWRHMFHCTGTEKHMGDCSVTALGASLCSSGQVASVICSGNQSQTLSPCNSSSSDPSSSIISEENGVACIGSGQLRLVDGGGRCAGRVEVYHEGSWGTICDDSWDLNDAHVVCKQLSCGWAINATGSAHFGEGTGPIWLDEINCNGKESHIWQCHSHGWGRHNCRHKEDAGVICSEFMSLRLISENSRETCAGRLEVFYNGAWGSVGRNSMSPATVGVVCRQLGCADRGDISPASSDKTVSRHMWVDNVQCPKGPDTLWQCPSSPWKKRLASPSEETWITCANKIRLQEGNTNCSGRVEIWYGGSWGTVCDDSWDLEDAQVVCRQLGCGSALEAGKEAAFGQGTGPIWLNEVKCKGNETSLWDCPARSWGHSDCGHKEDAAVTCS
The assay can be described thus: SPR (Biacore 3000), antigen amine-coupled on CM5, VHH injected, pH 7.4. As to the method: (§1) To assess the affinity of selected purified clones to pCD163, pCD163-SRCR1-9-huFc or pCD163-SRCR4-7-huFc proteins were coated by amine coupling on a CM5 sensor ship (GE Healthcare). Surface plasmon resonance (SPR) (Biacore 3000, GE Healthcare) was used to determine the binding kinetics of selected single domain antibodies at pH7.4. Approximately 2000 RU of pCD163-SRCR1-9-huFc or pCD163-SRCR4-7-huFc, proteins at 20 or 30 µg/ml in Acetate buffer pH 5.0 or pH 5.5 were immobilized onto a CM5 chip using the standard amine coupling procedure.
(§2) 1x HBS-EP pH 7.4, were utilized as a running buffer during binding kinetic measurements. Purified VHH were injected at 3-fold dilution (300 nM; 100 nM; 33 nM; 11 nM; 3.7 nM; 1.2 nM; 0.4 nM; 0 nM), for 120 s, at a flow rate of 30 µl/min. RU levels were restored to base levels after regeneration with 10 µl of 10 mM NaOH / 1 M NaCl and 10 µl of 10 mM Glycine pH 1.5 between samples. Fitting 1:1 binding with mass transfer was applied to the set sample curves using the simultaneous fitting option of the BIAevaluation software to calculate the kinetic constants of the antibody-antigen interactions including association rate (ka), dissociation rate (kd) and affinity (KD). Curves were removed from the fitting after visual examination of the residuals and considering the value of Chi2: a minimum of 4 curves were considered for the simultaneous fitting.
Background: SPR reads the build-up and loss of mass on a sensor chip optically.

The target of assay [2] is T1, pCD163-SRCR1-9-huFc. Put plainly: SPR; upper end of the range, tied by Table 7 to VHH 017 on pCD163:SRCR1-9-Fc (75.20). Here is the method: as §1, §2
Assay [3] has as its target T1, pCD163-SRCR1-9-huFc. The assay can be described thus: SPR; lower end of the range, tied by Table 7 to VHH 012 on pCD163:SRCR1-9-Fc (1.03). Here is the method: as §1, §2

Among the data in patent publication US20230203185A1 (ECO ANIMAL HEALTH, published 2023) are Kd, koff and kon values, retold here.

Residue numbers refer to the chain shown, from its start.

Broadly, the Kd is the equilibrium constant for the complex coming apart. A higher Kd goes with weaker binding. A word on the koff: it is the first-order rate constant of dissociation. Low values mean a long-lived complex, high ones a short-lived complex. What is called kon is a measure of how fast the partners come together. The low end stands for slow association, the high end for fast association.

B1: VHH 015 (2G01) (VHH)
VHH: QVQLVESGGGLVQAGDTLRLSCTASGRTFSSYSMGWFRQAPGKEREFVAAITWNGYITNYADSVKGRFTISRDNTKNTVFLQMNSLKPEETAVYYCAATTFSTTSPISRTYNYWGPGTQVTVSS
notes: Llama single domain antibody; also called 150(#15); VHCDR3 150(#15); not shown: tags: c-myc tag in periplasmic extract (ELISA, FACS); FLAG and His tags in purified VHH (SPR, infection assays)
B1: in assay [1], the Kd turned out to be 14.7 nM, the dissociation rate constant (koff) stood at 0.00583 s⁻¹ and the kon is 396000 M⁻¹ s⁻¹.

B2: VHH 001 (1B02) (VHH)
VHH: EVQLVESGGGLVQAGGSLSLSCAASGGTLAMYAMSWFRQAPGKDRKFVAAINTSGRYSRYADSVKGRFTISRDNAKNTATLQMNSLEPEDTAVYYCAATDKGNWALAMSYDYWGQGTQVTVSS
notes: Llama single domain antibody; also called 144(#1); VHCDR3 144(#1); not shown: tags: c-myc tag in periplasmic extract (ELISA, FACS); FLAG and His tags in purified VHH (SPR, infection assays)
In assay [1], B2 came in with a Kd of 7.08 nM, a koff of 0.0178 s⁻¹ and a kon of 2.52e+06 M⁻¹ s⁻¹.

B3: VHH 023 (4E10) (VHH)
VHH: QVQLVESGGGLVQAGGSLRLSCVASSRTSSTYAMGWFRQGPGKERDFVAIISFGGTFYADSVKGRFTISRDNAKNTVYLQMNSLKPEDTAVYYCAAGRTLSKRADSYASWGQGTQVTVSS
notes: Llama single domain antibody; also called 70(#23); VHCDR3 70(#23); not shown: tags: c-myc tag in periplasmic extract (ELISA, FACS); FLAG and His tags in purified VHH (SPR, infection assays)
In assay [1], B3 came in with a Kd of 3.1 nM, an off-rate (koff) of 0.00927 s⁻¹ and a kon of 2.99e+06 M⁻¹ s⁻¹.

B4: VHH 017 (3D03) (VHH)
VHH: QLQLVESGGGLVQPGGSLRLSCAASGFTLDDYTIGWFRQAPGKEREGVSCINSITSNTYYADSVKGRFTISRDNAKNTVYLQMNSLTAEDTAIYYCAADSGLFSGSSCLKYRAMRFGSWGQGTQVTVSS
notes: Llama single domain antibody; also called 29(#17); VHCDR3 29(#17); not shown: tags: c-myc tag in periplasmic extract (ELISA, FACS); FLAG and His tags in purified VHH (SPR, infection assays)
Regarding B4, the Kd in assay [2] fell in the range of 1 to 75 nM. In assay [1], binding was put at a Kd of 75.2 nM, the koff stood at 0.083 s⁻¹ and the kon came to 1.1e+06 M⁻¹ s⁻¹.

B5: VHH 011 (2B06) (VHH)
VHH: EVQLVESGGGLVQAGGSLRLSCAASGRTLSVYGTGWFRQAPGKEREFVAGISGTTGSTLYADSVKGRFTISRDNAKNTVYLQMNSLKSEDTALYYCAAGGRVYITTSSWAYWGQGTQVTVSS
notes: Llama single domain antibody; also called 57(#11); VHCDR3 57(#11); not shown: tags: c-myc tag in periplasmic extract (ELISA, FACS); FLAG and His tags in purified VHH (SPR, infection assays)
Take B5: in assay [1], the affinity, expressed as Kd, was 71.4 nM; the koff is 0.01 s⁻¹; the kon is 140000 M⁻¹ s⁻¹.

B6: VHH 002 (1B04) (VHH)
VHH: QVQLVESGGGLVQAGGSLRLSCAASGLTFVTYSMGWFRQAPGKEREFVAAHRWSGSAYYAEHADSVEGRFTISRDYAKNMLYLQMNSLKHEDTAVYYCAAGVGSAAQYRYWGRGTQVTVSS
notes: Llama single domain antibody; also called 76(#2); VHCDR3 76(#2); not shown: tags: c-myc tag in periplasmic extract (ELISA, FACS); FLAG and His tags in purified VHH (SPR, infection assays)
In assay [1], B6 showed an equilibrium dissociation constant (Kd) of 20 nM, a koff of 0.0108 s⁻¹ and a kon of 539000 M⁻¹ s⁻¹.

B7: VHH 016 (2H11) (VHH)
VHH: EVQLVESGGGLVQAGGSLRLSCAASGRTFAPGSMGWFRQAPGKEREFVAAHRWSGSAYYADYADSVEGRFTISRDYAKNMVYLQMNSLKPGDTAVYYCAAGVGSAAQYTYWGRGTQVTVSS
notes: Llama single domain antibody; also called 77(#16); VHCDR3 77(#16); not shown: tags: c-myc tag in periplasmic extract (ELISA, FACS); FLAG and His tags in purified VHH (SPR, infection assays)
In assay [1], B7 came in with a Kd of 44.3 nM, a koff of 0.00972 s⁻¹ and a kon of 219000 M⁻¹ s⁻¹.

B8: VHH 012 (2C07) (VHH)
VHH: QLQLVESGGGLVQAGGSLRLSCVASGRTFSRYAMGWFRQAPGKEREFVAAIAWSTGSTYYANSVKGRFAISGDNAKNTVYLQMNSLKPEDTAVYYCAAETRYCSGFGCLDPRTYGSWGQGTQVTVSS
notes: Llama single domain antibody; also called 41(#12); VHCDR3 41(#12); not shown: tags: c-myc tag in periplasmic extract (ELISA, FACS); FLAG and His tags in purified VHH (SPR, infection assays)
For B8, the dissociation constant Kd in assay [3] was 1 to 75 nM. In assay [1], this molecule came in with a Kd of 1.03 nM, a koff of 0.00617 s⁻¹ and a kon of 5.97e+06 M⁻¹ s⁻¹.

B9: VHH 018 (3E01) (VHH)
VHH: QVQLQESGGGLVQVGGSLRLSCVASGRAPSRYVMGWFRQAPGQEREFVAGIAWSGRAPYADSVKGRSTISRDNAKNTVYLQMNSLKPEDTGVYYCAGGEGAIRWTTLDAYDYWGQGTQVTVSS
notes: Llama single domain antibody; also called 49(#18); VHCDR3 49(#18); not shown: tags: c-myc tag in periplasmic extract (ELISA, FACS); FLAG and His tags in purified VHH (SPR, infection assays)
B9: in assay [1], the Kd worked out at 16.5 nM, the koff came to 0.0134 s⁻¹ and the kon was 814000 M⁻¹ s⁻¹.

B10: VHH 019 (3E11) (VHH)
VHH: B9 VHH with G16S, A24T, A28T, G50A, A52S, S67F, R103K
notes: Llama single domain antibody; also called 47(#19); VHCDR3 47(#19); not shown: tags: c-myc tag in periplasmic extract (ELISA, FACS); FLAG and His tags in purified VHH (SPR, infection assays)
As for B10, in assay [1], the affinity, expressed as Kd, was 8.77 nM; the koff was determined as 0.0102 s⁻¹; the kon came out at 1.16e+06 M⁻¹ s⁻¹.

B11: VHH 020 (3H11) (VHH)
VHH: B9 VHH with A28T, S67F, T68V, N73S, P87S, R103L, L107P, D108G, D111N
notes: Llama single domain antibody; also called 48(#20); VHCDR3 48(#20); not shown: tags: c-myc tag in periplasmic extract (ELISA, FACS); FLAG and His tags in purified VHH (SPR, infection assays)
On to B11, for which, in assay [1], the Kd came out at 9.15 nM, the koff is 0.00865 s⁻¹ and the on-rate constant (kon) came out at 945000 M⁻¹ s⁻¹.
